Laboratory results taken from patent US20240084003A1 (SIMCERE ZAIMING PHARMACEUTICAL, published 2024).
Where a chain is given by its changes, count along the chain named. One block for each binder: values may come before it.

Tests used:
[1] = biological target: T1, human CD22-ECD-His protein (human, UniProt P20273 20-687); experiment: ELISA, Ab 0.001 nM
T1 construct: Made in house in HEK293E; also called hCD22-ECD-His; recombinant human CD22-ECD His protein; not shown: His tag
T1 sequence: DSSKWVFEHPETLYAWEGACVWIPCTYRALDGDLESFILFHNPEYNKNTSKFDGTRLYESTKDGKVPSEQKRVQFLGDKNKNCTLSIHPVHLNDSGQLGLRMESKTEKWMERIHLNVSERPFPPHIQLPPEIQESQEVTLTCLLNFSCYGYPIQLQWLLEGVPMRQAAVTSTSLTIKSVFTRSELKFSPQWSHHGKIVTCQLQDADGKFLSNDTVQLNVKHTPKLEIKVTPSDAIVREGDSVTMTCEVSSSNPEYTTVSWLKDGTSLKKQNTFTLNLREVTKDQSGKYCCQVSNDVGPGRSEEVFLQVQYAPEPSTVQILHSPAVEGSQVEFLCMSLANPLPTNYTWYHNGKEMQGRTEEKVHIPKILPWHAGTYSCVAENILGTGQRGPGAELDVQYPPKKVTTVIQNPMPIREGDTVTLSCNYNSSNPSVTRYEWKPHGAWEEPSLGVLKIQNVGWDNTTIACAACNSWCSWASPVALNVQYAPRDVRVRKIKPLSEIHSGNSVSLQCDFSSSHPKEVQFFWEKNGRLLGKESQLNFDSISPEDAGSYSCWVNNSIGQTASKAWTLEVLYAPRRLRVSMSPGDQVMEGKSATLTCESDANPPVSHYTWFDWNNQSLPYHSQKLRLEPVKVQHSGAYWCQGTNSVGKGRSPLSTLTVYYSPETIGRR
Outline: (§1)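 After overnight 4 °C coating with 2 μg/mL CD22-ECD-His and 2 h BSA blocking, wells received antibody, then HRP conjugate (each 2 h, 37 °C). Signal came from TMB, 30 min at room temperature, acid-stopped.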

[2] = biological target: T1, human CD22-ECD-His protein; experiment: ELISA, Ab 0.0001 nM
Outline: as §1

[3] = biological target: T1, human CD22-ECD-His protein; experiment: ELISA, Ab 0.00001 nM
Outline: as §1

human CD22 domain5-7-His = biological target: T2, human CD22 domain5-7-His (human, UniProt P20273 414-687); experiment: ELISA, human CD22 domain5-7-His coated
T2 construct: also called hCD22 domain5-7-His; not shown: His tag
T2 sequence: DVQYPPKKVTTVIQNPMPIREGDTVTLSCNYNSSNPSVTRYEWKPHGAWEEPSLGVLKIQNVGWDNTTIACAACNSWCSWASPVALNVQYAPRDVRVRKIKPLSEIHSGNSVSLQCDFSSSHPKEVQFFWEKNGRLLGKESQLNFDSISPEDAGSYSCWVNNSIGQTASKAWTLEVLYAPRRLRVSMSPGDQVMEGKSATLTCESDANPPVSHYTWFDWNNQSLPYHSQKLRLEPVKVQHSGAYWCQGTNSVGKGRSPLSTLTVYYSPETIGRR

B2: F1.280.1 (antibody, human IgG1, kappa, V domains shown)
VH: QIQLVQSGPELKKPGETVKISCKASGYTFTTYGMSWVKQTPGKGLTWMGWINTDSGVPTYADDFKRRFAFSLEASATTAYLQINNLKNEDTATYFCARGGPDYWGQGTTLTVSS
VL: DILLTQSPATLSVTPGETVSLSCRASQSIYKNLHWYHQKSHRSPRLLIKYASDSISGIPSRFTGSGSGTNFTLSINSVKPEDEGIYYCLQGYIVPLTFGAGTKLELKR
notes: Human-murine chimeric IgG1, kappa
OD450 [1]: 0.81 OD450
OD450 [2]: 0.24 OD450
OD450 [3]: 0.13 OD450
binding result (human CD22 domain5-7-His): no binding (tested: 100 nM)

B3: F2.343.16 (antibody, human IgG1, lambda, V domains shown)
VH: QVQLKQSGPGLVQPSQSLSITCTVSGFSLTGYGVQWVRQSPGKGLEWLGVIWGGGGTDYNAAFISRLNIIKDNSKSQVFFKMNSLQADDTAIYYCARYSKYGHFDVWGTGTAVTVSS
VL: QAVVTQESALTTSPGETVTLTCRSSTGAVTTSNYANWVQEKPDHLFTGLIGGTYNRVPGVPARFSGSLIGDKAALTITGAQTEDEAIYFCALWYSNHFWVFGGGTKLTVLG
notes: Human-murine chimeric IgG1, lambda
OD450 [1]: 0.43 OD450
OD450 [2]: 0.25 OD450
OD450 [3]: 0.18 OD450
binding result (human CD22 domain5-7-His): no binding (tested: 100 nM)

B5: F1.257.3 (antibody, human IgG1, kappa, V domains shown)
VH: QVQLQQSGPELARPGASVKLSCKASGYTFTSYGISWVKQRTGQDLEWIGEIYPKLGTTYYNEKFKDKATLTTDRSSSTAYMALRSLTSEDSAVYFCACPHYYATRGGDYWGQGTTLTVSS
VL: EIVLTQSPATLSVTPGDSVTFSCRASQSISNHLHWYQQKSHESPRLLIRYASQSISGIPSRFSGSGSGTDFTLSLSSVETEDFGVYFCQQSHSWPYTFGGGTKLEIAR
notes: as for B2
OD450 [1]: 0.6 OD450
OD450 [2]: 0.28 OD450
OD450 [3]: 0.2 OD450
binding result (human CD22 domain5-7-His): no binding (tested: 100 nM)

B6: F2.70.2 (antibody, human IgG1, lambda, V domains shown)
VH: EVQLVESGGGLVKPGGSLKLSCAASGFTFSDYGMNWFRQAPEKGLEWVAYISRGSHTIYYADTVKGRFTISRDNAKNTLFLQMTSLRSNDTAMYYCVRMAGYYAMDYWGQGTSVTVSS
VL: QLVLTQSSSASFSLGASAKLTCTLSSQHSSYIIEWYQQQPLKPPKYVMELKKDGSHSTGDGIPDRFSGSSSGADRYLSISNIQPEDEAIYICGVGDTIKEQFVYVFGGGTKVTVLG
notes: as for B3
OD450 [1]: 0.57 OD450
OD450 [2]: 0.18 OD450
OD450 [3]: 0.09 OD450
binding result (human CD22 domain5-7-His): no binding (tested: 100 nM)

Other lines, results leading:

OD450 [1]: 0.47 OD450
OD450 [2]: 0.13 OD450
OD450 [3]: 0.09 OD450
EC50 (read off the curve) (human CD22 domain5-7-His): ~0.1 nM
B1: F1.60.9 (antibody, human IgG1, kappa, V domains shown)
VH: QVQLKESGPGLVAPSQSLSITCTVSGLSLNNYGVSWVRQPPGKGLEWLGVIWGDGSTNYHSALISRLSISKDNSKSQVFLKLNSLHTDDTATYYCAINWGDYWGQGTTLIVSS
VL: DIKMTQSPSSMNASLGERVTITCKASQDINSYLSWFQQKPGKSPKILIYRANRLIDGVPSRFSGSGSGQDYSLTISSLEYEDMGIYYCLQYGVFPLTFGAGTKLELKR
notes: as for B2

OD450 [1]: 1.24 OD450
OD450 [2]: 0.44 OD450
OD450 [3]: 0.22 OD450
binding result (human CD22 domain5-7-His): no binding (tested: 100 nM)
B4: F1.245.2 (antibody, human IgG1, kappa, V domains shown)
VH: EVQLQQSGAELVKPGASVKLSCTGSGFNIKDYYIHWVKQRTEQGLEWMGRIDPEDGETEYAPKFQDEATITSDTSSNTAYLQLSSLTYEDTAVYYCAREAAGYFYRGSSYGYFDVWGTGTTVTVSS
VL: DFQMTQTTSFLSASLGDRVTISCSASQDISNYLNWYQQKPDGTVKLLIYYTSSLHSGVPSRFSGSGSGTDYSLTISNLEPEDIATYYCQQYSMLPYTFGGGTKLEMER
notes: as for B2

OD450 [1]: 0.66 OD450
OD450 [2]: 0.32 OD450
OD450 [3]: 0.22 OD450
binding result (human CD22 domain5-7-His): no binding (tested: 100 nM)
B7: F2.104.10 (antibody, human IgG1, lambda, V domains shown)
VH: B6 VH with L11F, K76E, V114L
VL: B6 VL with L50V, P84S
notes: as for B3

OD450 [1]: 0.44 OD450
OD450 [2]: 0.23 OD450
OD450 [3]: 0.16 OD450
binding result (human CD22 domain5-7-His): no binding (tested: 100 nM)
B8: F2.55.1 (antibody, human IgG1, lambda, V domains shown)
VH: QVTLKESGPGILQPSQTLSLTCSFSGFSLSTFPLGVGWIRQPSGKGLEWLAHVWWNDDDYYNPALKSRLTISKDTSNTRVFLSVASVDTAETATYYCARLNWDRWYFDVWGTGTTVTVSS
VL: QLVLTQSSSASFSLGASAKLTCTLSSQHSAYTVEWYQQQPLKPPKYVMELKKDGSHSTGDGIPDRFSGSSSGADRYLSISNIQPEDEAIYICGVGDTVKEQFVFGGGTKVTVLG
notes: as for B3
